In article PMC11154709, “4S-fluorination of ProB29 in insulin lispro slows fibril formation” (The Journal of Biological Chemistry, 2024):

Columns and labels:
[1] = cited from earlier work
Text: Removal of the constrained pyrrolidine ring of proline at position B28 grants additional conformational degrees of freedom and removes hydrophobic packing interactions at the dimer interface. […] However, the standard mutagenesis approach employed in the discovery of insulin lispro ([7]) (and other FDA-app ...

diabetic mice = assay: Reduction of blood glucose in diabetic mice; assay type: in vivo; conditions: 5 to 10% of the standard injection (3.5 and 1.75 mg kg-1 as printed in SI), commercial Humalog, subcutaneous, STZ-diabetic male NODscid mice 15-18 week old; mean ± SD of 4 biological replicates (Fig. S2)
Method: To verify bioactivity, lispro variants were injected subcutaneously into diabetic mice, and blood glucose was monitored over 2.5 h. Mouse models allow determination of activity but not time to onset of action ([27]). […] As expected, all lispro variants retained activity (Fig. 2A).
Figure 2 Biological activity and CD spectroscopy of lispro variants.A, lispros were injected subcutaneously into diabetic mice, and blood glucose was measured over time after injection. The data presented here represent the mean ± SD of 3 to 6 biological replicates. B–E, far-UV circular dichroism spectra (60 μM lispro in […] phosphate buffer, pH 8.0). […] 4R-F, 4R-fluoroproline; 4S-F, 4S-fluoroproline.
Experiments were conducted according to procedures approved by the Institutional Animal Care and Use Committee at the City of Hope. Adult (8–12 week old) male NODscid mice (Jackson Laboratory; stock # 001303) were injected intraperitoneally for three consecutive days with freshly prepared streptozotocin (45 mg kg^−1 body weight, suspended in 100 mM sodium citrate buffer, pH 4.5); diabetes was confirmed by the detection of high glucose levels (200–600 mg dL^−1) as measured by a glucomonitor (Freestyle, Abbott Diabetes Care). […] Blood glucose was measured from blood sampled from the lateral tail vein. […]
into the matrix solution (α -cyanohydroxycinnamic acid in 50% ACN, 0.1% TFA) and analyzed by […]

For “insulin lispro: fast-acting insulin with inversion of the residues ProB28 and LysB29; Humalog, Eli Lilly [reference compound]”, the “absorption” value [1] is listed as “accelerate absorption” and the “reduction of blood glucose at lower lispro doses” value (diabetic mice) is listed as “did not similarly reduce blood glucose in diabetic mice”.
